Test results: patent US20110311550A1 (Scripps Research, published 2011)

B1: MAb AR2A (antibody, V domains shown)
VH: LEQSGAEMKKPGASLKVSCKTSGYTFDDYGVTWVRQAPGQGLEWMGWISAYSGNTFYARKFQGRVTMTTDPSTRTAYMELRSLRSDDTAVYFCARDRGLAINGVVFPYFGLDVWGQGTTVTVSS
VL: ELTQSPVSLPVTPGEPASISCRSSQSLLHSNGNHYLDWYLQKPGQSPQLLMYLGSNRASGVPDRFSGSGSGTDFTLKISRVEAEDVGVYYCMQGLQTPWTFGQGTKVEIKR
notes: also called IgG1 of Fab G
B2: MAb AR1A (antibody, V domains shown)
VH: LEQSGAEVKKPGSSVKVSCRASGSPYSSYTITWVRQAPGQGLEWMGGIILMTGKANYAQKFQGRVTITADRATATAYMEMSSLTSDDTAIYYCARDPYVYAGDDVRSLSRWGQGTPVIVSS
VL: not shown
notes: also called IgG1 of Fab B2
B3: MAb AR3D (antibody, V domains shown)
VH: LEQSGAEVKKPGSSVKVSCKASGDTFRSYVITWARQAPGQGLEWMGAIIPFFGTTNLAQKFQGRVTITADESTKTVYMDLSSLRSDDTAVYYCAKAGDLSVGGVLAGGVPHLRHFDPWGQGTLVTVSS
VL: ELTQSPGTLSLSPGERATLSCRAGQTVASNSLAWYQHKPGQAPRLLIYGASIRASGIPDRFSGSGSGTDFTLTISRLEPEDFAVYYCQQYGLSSTFGQGTRLEIKR
notes: also called IgG1 of Fab L4
B4: MAb AR1B (antibody, V domains shown)
VH: LESGGGLVQPGGSLRLSCEASGYYFSSFAMSWVRQTPGKGLEWVSSIAGGTLGRTSYRDSVKGRFTISRDNSKNTVFLHMNNLRPEDTAVYYCAKDPLLFAGGPNWFDHWGQGTLVTVSS
VL: not shown
notes: also called IgG1 of Fab D1

Legend:
Test in all cases: ELISA, alanine mutant E1E2
H77 E1E2 mutant Q412A = H77 E1E2 mutant Q412A (HCV isolate H77, UniProt P27958 192-383; P27958 384-746)
H77 E1E2 mutant L413A = H77 E1E2 mutant L413A (HCV isolate H77, UniProt P27958 192-383; P27958 384-746)
H77 E1E2 mutant I414A = H77 E1E2 mutant I414A (HCV isolate H77, UniProt P27958 192-383; P27958 384-746)
H77 E1E2 mutant N415A = H77 E1E2 mutant N415A (HCV isolate H77, UniProt P27958 192-383; P27958 384-746)
H77 E1E2 mutant T416A = H77 E1E2 mutant T416A (HCV isolate H77, UniProt P27958 192-383; P27958 384-746)
H77 E1E2 mutant S419A = H77 E1E2 mutant S419A (HCV isolate H77, UniProt P27958 192-383; P27958 384-746)
H77 E1E2 mutant I422A = H77 E1E2 mutant I422A (HCV isolate H77, UniProt P27958 192-383; P27958 384-746)
H77 E1E2 mutant N423A = H77 E1E2 mutant N423A (HCV isolate H77, UniProt P27958 192-383; P27958 384-746)
H77 E1E2 mutant P484A = H77 E1E2 mutant P484A (HCV isolate H77, UniProt P27958 192-383; P27958 384-746)
H77 E1E2 mutant Y485A = H77 E1E2 mutant Y485A (HCV isolate H77, UniProt P27958 192-383; P27958 384-746)
H77 E1E2 mutant W487A = H77 E1E2 mutant W487A (HCV isolate H77, UniProt P27958 192-383; P27958 384-746)
H77 E1E2 mutant H488A = H77 E1E2 mutant H488A (HCV isolate H77, UniProt P27958 192-383; P27958 384-746)
H77 E1E2 mutant Y489A = H77 E1E2 mutant Y489A (HCV isolate H77, UniProt P27958 192-383; P27958 384-746)
H77 E1E2 mutant P491A = H77 E1E2 mutant P491A (HCV isolate H77, UniProt P27958 192-383; P27958 384-746)
H77 E1E2 mutant G523A = H77 E1E2 mutant G523A (HCV isolate H77, UniProt P27958 192-383; P27958 384-746)
H77 E1E2 mutant P525A = H77 E1E2 mutant P525A (HCV isolate H77, UniProt P27958 192-383; P27958 384-746)
H77 E1E2 mutant T526A = H77 E1E2 mutant T526A (HCV isolate H77, UniProt P27958 192-383; P27958 384-746)
H77 E1E2 mutant Y527A = H77 E1E2 mutant Y527A (HCV isolate H77, UniProt P27958 192-383; P27958 384-746)
H77 E1E2 mutant W529A = H77 E1E2 mutant W529A (HCV isolate H77, UniProt P27958 192-383; P27958 384-746)
H77 E1E2 mutant G530A = H77 E1E2 mutant G530A (HCV isolate H77, UniProt P27958 192-383; P27958 384-746)
H77 E1E2 mutant D535A = H77 E1E2 mutant D535A (HCV isolate H77, UniProt P27958 192-383; P27958 384-746)
H77 E1E2 mutant V538A = H77 E1E2 mutant V538A (HCV isolate H77, UniProt P27958 192-383; P27958 384-746)
H77 E1E2 mutant R543A = H77 E1E2 mutant R543A (HCV isolate H77, UniProt P27958 192-383; P27958 384-746)
H77 E1E2 mutant P544A = H77 E1E2 mutant P544A (HCV isolate H77, UniProt P27958 192-383; P27958 384-746)
H77 E1E2 mutant P545A = H77 E1E2 mutant P545A (HCV isolate H77, UniProt P27958 192-383; P27958 384-746)
H77 E1E2 mutant G547A = H77 E1E2 mutant G547A (HCV isolate H77, UniProt P27958 192-383; P27958 384-746)
H77 E1E2 mutant W549A = H77 E1E2 mutant W549A (HCV isolate H77, UniProt P27958 192-383; P27958 384-746)
H77 E1E2 mutant F550A = H77 E1E2 mutant F550A (HCV isolate H77, UniProt P27958 192-383; P27958 384-746)

Binder	binding vs wild-type E1E2 (H77 E1E2 mutant Q412A) [%]	binding vs wild-type E1E2 (H77 E1E2 mutant L413A) [%]	binding vs wild-type E1E2 (H77 E1E2 mutant I414A) [%]	binding vs wild-type E1E2 (H77 E1E2 mutant N415A) [%]	binding vs wild-type E1E2 (H77 E1E2 mutant T416A) [%]	binding vs wild-type E1E2 (H77 E1E2 mutant S419A) [%]	binding vs wild-type E1E2 (H77 E1E2 mutant I422A) [%]	binding vs wild-type E1E2 (H77 E1E2 mutant N423A) [%]	binding vs wild-type E1E2 (H77 E1E2 mutant P484A) [%]	binding vs wild-type E1E2 (H77 E1E2 mutant Y485A) [%]	binding vs wild-type E1E2 (H77 E1E2 mutant W487A) [%]	binding vs wild-type E1E2 (H77 E1E2 mutant H488A) [%]	binding vs wild-type E1E2 (H77 E1E2 mutant Y489A) [%]	binding vs wild-type E1E2 (H77 E1E2 mutant P491A) [%]	binding vs wild-type E1E2 (H77 E1E2 mutant G523A) [%]	binding vs wild-type E1E2 (H77 E1E2 mutant P525A) [%]	binding vs wild-type E1E2 (H77 E1E2 mutant T526A) [%]	binding vs wild-type E1E2 (H77 E1E2 mutant Y527A) [%]	binding vs wild-type E1E2 (H77 E1E2 mutant W529A) [%]	binding vs wild-type E1E2 (H77 E1E2 mutant G530A) [%]	further results
B1	95	92	180	122	99	93	95	69	77	67	93	72	138	123	129	109	101	149	132	53	binding vs wild-type E1E2 (H77 E1E2 mutant D535A): 133%; binding vs wild-type E1E2 (H77 E1E2 mutant V538A): 62%; binding vs wild-type E1E2 (H77 E1E2 mutant R543A): 125%; binding vs wild-type E1E2 (H77 E1E2 mutant P544A): 126%; binding vs wild-type E1E2 (H77 E1E2 mutant P545A): 106%; binding vs wild-type E1E2 (H77 E1E2 mutant G547A): 83%; binding vs wild-type E1E2 (H77 E1E2 mutant W549A): 151%; binding vs wild-type E1E2 (H77 E1E2 mutant F550A): 156%
B2	145	103	128	106	23	84	106	79	38	17	89	91	189	119	112	101	81	61	367	227	binding vs wild-type E1E2 (H77 E1E2 mutant D535A): 235%; binding vs wild-type E1E2 (H77 E1E2 mutant V538A): 17%; binding vs wild-type E1E2 (H77 E1E2 mutant R543A): 239%; binding vs wild-type E1E2 (H77 E1E2 mutant P544A): 69%; binding vs wild-type E1E2 (H77 E1E2 mutant P545A): 74%; binding vs wild-type E1E2 (H77 E1E2 mutant G547A): 34%; binding vs wild-type E1E2 (H77 E1E2 mutant W549A): 0%; binding vs wild-type E1E2 (H77 E1E2 mutant F550A): 379%
B3	44	83	126	131	90	73	113	65	90	145	119	123	113	204	48	53	135	119	88	24	binding vs wild-type E1E2 (H77 E1E2 mutant D535A): 32%; binding vs wild-type E1E2 (H77 E1E2 mutant V538A): 95%; binding vs wild-type E1E2 (H77 E1E2 mutant R543A): 276%; binding vs wild-type E1E2 (H77 E1E2 mutant P544A): 318%; binding vs wild-type E1E2 (H77 E1E2 mutant P545A): 307%; binding vs wild-type E1E2 (H77 E1E2 mutant G547A): 202%; binding vs wild-type E1E2 (H77 E1E2 mutant W549A): 274%; binding vs wild-type E1E2 (H77 E1E2 mutant F550A): 320%
B4	48	109	147	131	99	118	58	38	45	30	70	63	52	118	33	33	48	83	94	50	binding vs wild-type E1E2 (H77 E1E2 mutant D535A): 121%; binding vs wild-type E1E2 (H77 E1E2 mutant V538A): 52%; binding vs wild-type E1E2 (H77 E1E2 mutant R543A): 135%; binding vs wild-type E1E2 (H77 E1E2 mutant P544A): 16%; binding vs wild-type E1E2 (H77 E1E2 mutant P545A): 20%; binding vs wild-type E1E2 (H77 E1E2 mutant G547A): 0%; binding vs wild-type E1E2 (H77 E1E2 mutant W549A): 0%; binding vs wild-type E1E2 (H77 E1E2 mutant F550A): 257%
